Laboratory results reported in IntAct's records for PubMed 25893917.

B1: Twist-related protein 1 (Mus musculus), P26687 (parent)
chain: MMQDVSSSPVSPADDSLSNSEEEPDRQQPASGKRGARKRRSSRRSAGGSAGPGGATGGGIGGGDEPGSPAQGKRGKKSAGGGGGGGAGGGGGGGGGSSSGGGSPQSYEELQTQRVMANVRERQRTQSLNEAFAALRKIIPTLPSDKLSKIQTLKLAARYIDFLYQVLQSDELDSKMASCSYVAHERLSYAFSVWRMEGAWSMSASH
partner: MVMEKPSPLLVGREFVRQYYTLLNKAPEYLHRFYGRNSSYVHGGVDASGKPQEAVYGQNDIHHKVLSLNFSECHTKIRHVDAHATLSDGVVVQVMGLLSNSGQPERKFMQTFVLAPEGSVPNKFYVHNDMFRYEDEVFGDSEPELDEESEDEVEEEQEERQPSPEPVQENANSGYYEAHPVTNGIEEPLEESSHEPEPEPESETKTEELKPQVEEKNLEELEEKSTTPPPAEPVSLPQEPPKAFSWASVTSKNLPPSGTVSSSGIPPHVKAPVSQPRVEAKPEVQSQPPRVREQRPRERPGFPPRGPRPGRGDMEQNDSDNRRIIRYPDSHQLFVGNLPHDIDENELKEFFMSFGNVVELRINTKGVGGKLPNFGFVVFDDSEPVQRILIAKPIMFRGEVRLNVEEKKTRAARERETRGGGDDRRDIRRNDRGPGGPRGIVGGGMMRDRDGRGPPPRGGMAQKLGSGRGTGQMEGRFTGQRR

Variants of: B1
Settings: with G3BP2, Q9UN86

| Variant | effect of a mutation on the interaction |
| --- | --- |
| MMQDVSSSPVSPADDSLSNSEEEPDRQQPASGKRGARKRRSSRRSAGGSAGPGGATGGGIGGGDEPGSPAQGKRGKKSAGGGGGGGAGGGGGGGGGSSSGGGSPQSEEELQTQRVMANVRERQRTQSLNEAFAALRKIIPTLPSDKLSKIQTLKLAARYIDFLYQVLQSDELDSKMASCSYVAHERLSYAFSVWRMEGAWSMSASH [Y107E] | decreasing interaction strength |
